Test system: double knockout E. coli (EPSPS defective E. coli, EDCE)
Assay: growth of EPSPS defective E. coli transformed by the EPSPS gene in M9 culture media containing different glyphosate concentrations
Assay type: cell-based, E. coli DH5α
Description: A method for detecting the glyphosate resistance of the soybean EPSPS mutant G1 provided in Example 1 and the soybean EPSPS mutant G3 provided in Example 2 is as follows:
according to the sequence of the nucleic acid molecule provided in the example, synthesizing the encoding gene that encodes the soybean EPSPS mutant G1 or G3 using a chemical synthesis method, introducing enzyme sites (Pac1 and Sbf1) at two ends thereof, connecting to an expression vector (for example, a pADV5 vector, the structure of which is as shown in FIG. 15) that has undergone the same restriction enzyme digestion treatment under the action of ligase after restriction enzyme digestion, then transforming double knockout E. coli, picking positive colonies after verification, inoculating the positive colonies to M9 culture media containing different glyphosate concentrations for growth, and observing the growth situation of the E. coli.
The wild-type soybean EPSPS (with an amino acid sequence represented by SEQ ID NO: 2 and an encoding gene sequence represented by SEQ ID NO: 1) and the soybean EPSPS mutant G2 (with an amino acid sequence represented by SEQ ID NO: 6, and a corresponding encoding gene sequence represented by SEQ ID NO: 5) merely containing the mutation P114(101)S were taken as controls.
In the above, the M9 basal culture medium can be prepared by the following method:
5×M9 salt solution: 6.78 g of Na2HPO4, 3.0 g of KH2PO4, 0.5 g of NaCl, and 1.0 g of NH4Cl were weighed, added with ddH2O to 200 ml, and subjected to high-temperature and high-pressure sterilization treatment;
20% glucose: 20 g of glucose was weighed, added with 80 ml of ddH2O for dissolving, diluted to 100 ml, and subjected to filtration and sterilization treatment;
1.0 M MgSO4: 24.6 g of MgSO4-7H2O was weighed, dissolved with 80 ml of ddH2O, diluted to 100 ml, and subjected to sterilization treatment;
1.0 M CaCl2: 11.1 g of CaCl2 was weighed, dissolved with 80 ml of ddH2O, diluted to 100 ml, and subjected to sterilization treatment; and
1000 ml of the M9 basal culture media were prepared by adding ddH2O to 200 ml of 5×M9 salt solution, 20 ml of 20% glucose, 2 ml of 1.0 M MgSO4 and 0.1 ml of 1.0 M CaCl2 to make up to 1000 ml.
In the above, the E. coli used was double knockout E. coli, namely, EPSPS defective E. coli (E. coli DH5α with EPSPS gene and C-P Lyase gene being knocked out, named as EDCE, wherein for a preparation method thereof, reference can be made to a Chinese invention patent with the filing number CN2016103256926).
The glyphosate resistance of the soybean EPSPS mutant G4 provided in Example 3 and the soybean EPSPS mutant G5 provided in Example 4 was verified with reference to the detection method in Experiment Example 1.
The wild-type wheat EPSPS (with an amino acid sequence represented by SEQ ID NO: 14, and a corresponding encoding gene sequence represented by SEQ ID NO: 13) and the wheat EPSPS mutant T2 (with an amino acid sequence represented by SEQ ID NO: 18, and a corresponding encoding gene sequence represented by SEQ ID NO: 17) merely containing the mutation P118(101)S were taken as controls to verify the glyphosate resistance of the wheat EPSPS mutants T1 and T3 provided in Example 5 and Example 6, and reference can be made to Experiment Example 1 for the method.
A method for verifying the glyphosate resistance of the wheat EPSPS mutants T4, T5, and T6 provided in Examples 7-9 is the same as that in Experiment Example 3.
The wild-type rice EPSPS R0 (with an amino acid sequence represented by SEQ ID NO: 28, and a corresponding encoding gene sequence represented by SEQ ID NO: 27) and the rice EPSPS mutant R2 (with an amino acid sequence represented by SEQ ID NO: 32, and a corresponding encoding gene sequence represented by SEQ ID NO: 31) merely containing the mutation P116(101)S were taken as controls to verify the glyphosate resistance of the rice EPSPS mutants R1 and R3 provided in Examples 10 and 11, and reference can be made to Experiment Example 1 for the method. […]

[1] = culture media containing 0 mM glyphosate
[2] = culture media containing 1 mM glyphosate
[3] = culture media containing 5 mM glyphosate
[4] = culture media containing 10 mM glyphosate
[5] = culture media containing 20 mM glyphosate

B1: T0: wild-type wheat EPSPS, amino acid sequence SEQ ID NO: 14; control (protein, listed as Triticum aestivum)
chain: MATSVAAPAAPAGAEEVVLQPIREISGAVQLPGSKSLSNRILLLSALSEGTTVVDNLLNSEDVHYMLEALEALGLSVEADKVAKRAVVVGCGGRFPVEKDAKEEVKLFLGNAGTAMRPLTAAVVAAGGNATYVLDGVPRMRERPIGDLVVGLQQLGADVDCFLGTNCPPVRINGKGGLPGGKVKLSGSISSQYLSSLLMAAPLALEDVEIEIIDKLISVPYVEMTLKLMEHFGVTAEHSDSWDRFYIKGGQKYKSPGNAYVEGDASSASYFLAGAAITGGTVTVEGCGTTSLQGDVKFAEVLEMMGAKVTWTDTSVTVTGPPRQPFGRKHLKAVDVNMNKMPDVAMTLAVVALFADGPTAIRDVASWRVKETERMVAIRTELTKLGATVEEGPDYCIITPPEKLNITAIDTYDDHRMAMAFSLAACAEVPVTIRDPGCTRKTFPNYFDVLSTFVKN
For B1, the “growth of the E. coli transformed by the EPSPS” value (shortened to “growth … by the EPSPS”) [1] was “could grow” and the “growth … by the EPSPS” value [2] was “substantially could not grow”.

B2: G0: wild-type soybean EPSPS, amino acid sequence SEQ ID NO: 2; control (protein)
chain: MAAAEKPSTAPEIVLEPIKDISGTITLPGSKSLSNRILLLAALSEGTTVVDNLLYSEDIHYMLGALRTLGLRVEDDQTTKQAIVEGCGGLFPTIKESKDEINLFLGNAGTAMRPLTAAVVAAGGNASYVLDGVPRMRERPIGDLVAGLKQLGADVDCFLGTNCPPVRVNGKGGLPGGKVKLSGSVSSQYLTALLMAAPLALGDVEIEIVDKLISVPYVEMTLKLMERFGVSVEHSGDWDKFLVHGGQKYKSPGNAFVEGDASSASYFLAGAAVTGGTITVNGCGTSSLQGDVKFAEVLEKMGAKVTWSENSVTVTGPPQDSSGQKVLQGIDVNMNKMPDVAMTLAVVALFANGQTTIRDVASWRVKETERMIAICTELRKLGATVEEGPDYCVITPPEKLNVTAIDTYDDHRMAMAFSLAACGDVPVTIKDPGCTRKTFPDYFEVLERFTRH
modifications: Glycine max
notes: control
For B2, the “growth … by the EPSPS” value [1] was “could grow”, the “growth … by the EPSPS” value [2] was “substantially could not grow” and the “growth … by the EPSPS” value [3] was “substantially could not grow”.

B3: G2: soybean EPSPS mutant, SEQ ID NO: 6, merely containing the mutation P114(101)S; control (protein)
chain: MAAAEKPSTAPEIVLEPIKDISGTITLPGSKSLSNRILLLAALSEGTTVVDNLLYSEDIHYMLGALRTLGLRVEDDQTTKQAIVEGCGGLFPTIKESKDEINLFLGNAGTAMRSLTAAVVAAGGNASYVLDGVPRMRERPIGDLVAGLKQLGADVDCFLGTNCPPVRVNGKGGLPGGKVKLSGSVSSQYLTALLMAAPLALGDVEIEIVDKLISVPYVEMTLKLMERFGVSVEHSGDWDKFLVHGGQKYKSPGNAFVEGDASSASYFLAGAAVTGGTITVNGCGTSSLQGDVKFAEVLEKMGAKVTWSENSVTVTGPPQDSSGQKVLQGIDVNMNKMPDVAMTLAVVALFANGQTTIRDVASWRVKETERMIAICTELRKLGATVEEGPDYCVITPPEKLNVTAIDTYDDHRMAMAFSLAACGDVPVTIKDPGCTRKTFPDYFEVLERFTRH
In the case of B3, the “growth … by the EPSPS” value [1] is reported as “could grow”, the “growth … by the EPSPS” value [4] is reported as “could grow” and the “growth … by the EPSPS” value [5] is reported as “could grow”.

B4: G3: soybean EPSPS mutant, SEQ ID NO: 8, mutations L212(195)P and P114(101)S (protein)
chain: MAAAEKPSTAPEIVLEPIKDISGTITLPGSKSLSNRILLLAALSEGTTVVDNLLYSEDIHYMLGALRTLGLRVEDDQTTKQAIVEGCGGLFPTIKESKDEINLFLGNAGTAMRSLTAAVVAAGGNASYVLDGVPRMRERPIGDLVAGLKQLGADVDCFLGTNCPPVRVNGKGGLPGGKVKLSGSVSSQYLTALLMAAPLALGDVEIEIVDKPISVPYVEMTLKLMERFGVSVEHSGDWDKFLVHGGQKYKSPGNAFVEGDASSASYFLAGAAVTGGTITVNGCGTSSLQGDVKFAEVLEKMGAKVTWSENSVTVTGPPQDSSGQKVLQGIDVNMNKMPDVAMTLAVVALFANGQTTIRDVASWRVKETERMIAICTELRKLGATVEEGPDYCVITPPEKLNVTAIDTYDDHRMAMAFSLAACGDVPVTIKDPGCTRKTFPDYFEVLERFTRH
For B4, the “growth … by the EPSPS” value [1] was “could grow”, the “growth … by the EPSPS” value [5] was “could grow” and the “growth of the transformed E. coli compared with E. coli transformed by the control EPSPS named in the value” [5] was “superior to that of the E. coli transformed by the soybean EPSPS mutant G2”.

B5: G1: soybean EPSPS mutant, SEQ ID NO: 4, mutation L212(195)P (protein)
chain: MAAAEKPSTAPEIVLEPIKDISGTITLPGSKSLSNRILLLAALSEGTTVVDNLLYSEDIHYMLGALRTLGLRVEDDQTTKQAIVEGCGGLFPTIKESKDEINLFLGNAGTAMRPLTAAVVAAGGNASYVLDGVPRMRERPIGDLVAGLKQLGADVDCFLGTNCPPVRVNGKGGLPGGKVKLSGSVSSQYLTALLMAAPLALGDVEIEIVDKPISVPYVEMTLKLMERFGVSVEHSGDWDKFLVHGGQKYKSPGNAFVEGDASSASYFLAGAAVTGGTITVNGCGTSSLQGDVKFAEVLEKMGAKVTWSENSVTVTGPPQDSSGQKVLQGIDVNMNKMPDVAMTLAVVALFANGQTTIRDVASWRVKETERMIAICTELRKLGATVEEGPDYCVITPPEKLNVTAIDTYDDHRMAMAFSLAACGDVPVTIKDPGCTRKTFPDYFEVLERFTRH
With B5 the “growth … by the EPSPS” value [1] was “could grow” and the “growth of the transformed E. coli compared with E. coli transformed by the control EPSPS named in the value” [2] was “obviously superior to that of the E. coli transformed by G0”.

B6: G4: soybean EPSPS mutant, SEQ ID NO: 10, mutation S265(247)G (protein)
chain: MAAAEKPSTAPEIVLEPIKDISGTITLPGSKSLSNRILLLAALSEGTTVVDNLLYSEDIHYMLGALRTLGLRVEDDQTTKQAIVEGCGGLFPTIKESKDEINLFLGNAGTAMRPLTAAVVAAGGNASYVLDGVPRMRERPIGDLVAGLKQLGADVDCFLGTNCPPVRVNGKGGLPGGKVKLSGSVSSQYLTALLMAAPLALGDVEIEIVDKLISVPYVEMTLKLMERFGVSVEHSGDWDKFLVHGGQKYKSPGNAFVEGDASSAGYFLAGAAVTGGTITVNGCGTSSLQGDVKFAEVLEKMGAKVTWSENSVTVTGPPQDSSGQKVLQGIDVNMNKMPDVAMTLAVVALFANGQTTIRDVASWRVKETERMIAICTELRKLGATVEEGPDYCVITPPEKLNVTAIDTYDDHRMAMAFSLAACGDVPVTIKDPGCTRKTFPDYFEVLERFTRH
B6 was tested, and the “growth … by the EPSPS” value [1] was “could grow” and the “growth of the transformed E. coli compared with E. coli transformed by the control EPSPS named in the value” [3] was “superior to that of the E. coli transformed by G0”.

B7: G5: soybean EPSPS mutant, SEQ ID NO: 12, mutations S265(247)G and P114(101)S (protein)
chain: MAAAEKPSTAPEIVLEPIKDISGTITLPGSKSLSNRILLLAALSEGTTVVDNLLYSEDIHYMLGALRTLGLRVEDDQTTKQAIVEGCGGLFPTIKESKDEINLFLGNAGTAMRSLTAAVVAAGGNASYVLDGVPRMRERPIGDLVAGLKQLGADVDCFLGTNCPPVRVNGKGGLPGGKVKLSGSVSSQYLTALLMAAPLALGDVEIEIVDKLISVPYVEMTLKLMERFGVSVEHSGDWDKFLVHGGQKYKSPGNAFVEGDASSAGYFLAGAAVTGGTITVNGCGTSSLQGDVKFAEVLEKMGAKVTWSENSVTVTGPPQDSSGQKVLQGIDVNMNKMPDVAMTLAVVALFANGQTTIRDVASWRVKETERMIAICTELRKLGATVEEGPDYCVITPPEKLNVTAIDTYDDHRMAMAFSLAACGDVPVTIKDPGCTRKTFPDYFEVLERFTRH
With B7 the “growth … by the EPSPS” value [1] was “could grow”, the “growth … by the EPSPS” value [4] was “could grow” and the “growth of the transformed E. coli compared with E. coli transformed by the control EPSPS named in the value” [4] was “obviously superior to that of the E. coli transformed by G2”.

Reference: patent US11584938B2, “Plant EPSPS mutant containing L195P and S247G mutations and encoding gene and use thereof” (GEVOTO LLC, priority 2017, dated 2023)
